Reference: the supplement of paper PMC10567573

B1: RHOBTB2 (parent)
chain: HHHHGRDFLLRAASFDVCESVDEA
B2: ZNF263 (parent)
chain: KPYKCTLCGENFSHRSNLIRHQRI

Variants of: B1
Assay: protein stability index of a GFP-peptide fusion (GPS, HEK-293T) (PSI 1-6); higher = more stable
Settings: c terminus: a fixed tail appended
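Note: lentivirally expressed fusions sorted by FACS into six bins by GFP to DsRed ratio, PSI derived from sequencing read proportions per bin multiplied by bin number.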

Variant	protein stability index
DHHHGRDFLLRAASFDVCESVDEA [H1D]	4.88
CHHHGRDFLLRAASFDVCESVDEA [H1C]	4.02
PHHHGRDFLLRAASFDVCESVDEA [H1P]	4.71
FHHHGRDFLLRAASFDVCESVDEA [H1F]	1.48
IHHHGRDFLLRAASFDVCESVDEA [H1I]	3.45
AHHHGRDFLLRAASFDVCESVDEA [H1A]	4.49
QHHHGRDFLLRAASFDVCESVDEA [H1Q]	4.26
NHHHGRDFLLRAASFDVCESVDEA [H1N]	4.53
SHHHGRDFLLRAASFDVCESVDEA [H1S]	4.34
GHHHGRDFLLRAASFDVCESVDEA [H1G]	4.55
MHHHGRDFLLRAASFDVCESVDEA [H1M]	4.17
RHHHGRDFLLRAASFDVCESVDEA [H1R]	3.92
KHHHGRDFLLRAASFDVCESVDEA [H1K]	4.35
LHHHGRDFLLRAASFDVCESVDEA [H1L]	3.74
EHHHGRDFLLRAASFDVCESVDEA [H1E]	4.42

Variants of: B2
Assay: as above
Settings: c terminus: a fixed tail appended

Variant	protein stability index
KPYKCTLCGENFSHRSQLIRHQRI [N17Q]	2.9
KPYKCTLCGENFSHRSALIRHQRI [N17A]	3.59
KPYKCTLCGENFSHRSRLIRHQRI [N17R]	2.64
KPYKCTLCGENFSHRSWLIRHQRI [N17W]	2.07
KPYKCTLCGENFSHRSELIRHQRI [N17E]	3.31
KPYKCTLCGENFSHRSILIRHQRI [N17I]	2.93
KPYKCTLCGENFSHRSMLIRHQRI [N17M]	2.87
KPYKCTLCGENFSHRSPLIRHQRI [N17P]	1.87
KPYKCTLCGENFSHRSKLIRHQRI [N17K]	3.28
KPYKCTLCGENFSHRSYLIRHQRI [N17Y]	3.12
KPYKCTLCGENFSHRSCLIRHQRI [N17C]	2.47
KPYKCTLCGENFSHRSGLIRHQRI [N17G]	3.16
KPYKCTLCGENFSHRSVLIRHQRI [N17V]	1.7
KPYKCTLCGENFSHRSFLIRHQRI [N17F]	2.08
KPYKCTLCGENFSHRSLLIRHQRI [N17L]	2.77
KPYKCTLCGENFSHRSDLIRHQRI [N17D]	3.88
KPYKCTLCGENFSHRSSLIRHQRI [N17S]	2.99
KPYKCTLCGENFSHRSTLIRHQRI [N17T]	2.65
KPYKCTLCGENFSHRSHLIRHQRI [N17H]	3.64
KPYKCTLCGENFSHRSNLCRHQRI [I19C]	4.18
KPYKCTLCGENFSHRSNLTRHQRI [I19T]	2.5
KPYKCTLCGENFSHRSNLDRHQRI [I19D]	2.74
KPYKCTLCGENFSHRSNLSRHQRI [I19S]	1.88
KPYKCTLCGENFSHRSNLKRHQRI [I19K]	2.65
KPYKCTLCGENFSHRSNLYRHQRI [I19Y]	2.3

Variant	protein stability index
KPYKCTLCGENFSHRSNLHRHQRI [I19H]	2.33
KPYKCTLCGENFSHRSNLERHQRI [I19E]	2.89
KPYKCTLCGENFSHRSNLNRHQRI [I19N]	1.77
KPYKCTLCGENFSHRSNLGRHQRI [I19G]	3.08
KPYKCTLCGENFSHRSNLLRHQRI [I19L]	2.32
KPYKCTLCGENFSHRSNLRRHQRI [I19R]	2.9
KPYKCTLCGENFSHRSNLPRHQRI [I19P]	2.11
KPYKCTLCGENFSHRSNLARHQRI [I19A]	2.57
KPYKCTLCGENFSHRSNLMRHQRI [I19M]	2.62
KPYKCTLCGENFSHRSNLWRHQRI [I19W]	1.5
KPYKCTLCGENFSHRSNLQRHQRI [I19Q]	2.44
KPYKCTLCGENFSHRSNLVRHQRI [I19V]	2.54
KPYKCTLCGENFSHRSNLFRHQRI [I19F]	1.88
KPYKCTLCGENFSHRKNLIRHQRI [S16K]	3.28
KPYKCTLCGENFSHRENLIRHQRI [S16E]	2.53
KPYKCTLCGENFSHRTNLIRHQRI [S16T]	1.65
KPYKCTLCGENFSHRLNLIRHQRI [S16L]	2.88
KPYKCTLCGENFSHRYNLIRHQRI [S16Y]	2.91
KPYKCTLCGENFSHRANLIRHQRI [S16A]	2.04
KPYKCTLCGENFSHRRNLIRHQRI [S16R]	3.92
KPYKCTLCGENFSHRWNLIRHQRI [S16W]	2.43
KPYKCTLCGENFSHRPNLIRHQRI [S16P]	1.77
KPYKCTLCGENFSHRCNLIRHQRI [S16C]	2.41
KPYKCTLCGENFSHRINLIRHQRI [S16I]	2.41
KPYKCTLCGENFSHRMNLIRHQRI [S16M]	2.26

Variant	protein stability index
KPYKCTLCGENFSHRVNLIRHQRI [S16V]	1.87
KPYKCTLCGENFSHRFNLIRHQRI [S16F]	2.02
KPYKCTLCGENFSHRNNLIRHQRI [S16N]	2.13
KPYKCTLCGENFSHRDNLIRHQRI [S16D]	2.74
KPYKCTLCGENFSHRHNLIRHQRI [S16H]	2.76
KPYKCTLCGENFSHRQNLIRHQRI [S16Q]	2.81
KPYKCTLCGENFSHRGNLIRHQRI [S16G]	1.94
KPYKCTLCGENFSHVSNLIRHQRI [R15V]	2.88
KPYKCTLCGENFSHWSNLIRHQRI [R15W]	2.54
KPYKCTLCGENFSHYSNLIRHQRI [R15Y]	2.45
KPYKCTLCGENFSHRSNLIRHQRY [I24Y]	2.51
KPYKCTLCGENFSHRSNLIRHQRG [I24G]	2.75
KPYKCTLCGENFSHRSNLIRHQRM [I24M]	2.74
KPYKCTLCGENFSHRSNLIRHQRN [I24N]	3.11
KPYKCTLCGENFSHRSNLIRHQRR [I24R]	3.16
KPYKCTLCGENFSHRSNLIRHQRT [I24T]	2.64
KPYKCTLCGENFSHRSNLIRHQRL [I24L]	2.3
KPYKCTLCGENFSHRSNLIRHQRP [I24P]	2.59
KPYKCTLCGENFSHRSNLIRHQRC [I24C]	3.76
KPYKCTLCGENFSHRSNLIRHQRK [I24K]	2.89
KPYKCTLCGENFSHRSNLIRHQRQ [I24Q]	4.56
KPYKCTLCGENFSHRSNLIRHQRE [I24E]	3.68
KPYKCTLCGENFSHRSNLIRHQRD [I24D]	3.09
KPYKCTLCGENFSHRSNLIRHQRW [I24W]	2.4
KPYKCTLCGENFSHRSNLIRHQRA [I24A]	2.81

Variant	protein stability index
KPYKCTLCGENFSHRSNLIRHQRH [I24H]	2.45
KPYKCTLCGENFSHRSNLIRHQRV [I24V]	2.63
KPYKCTLCGENFSHRSNLIRHQRS [I24S]	2.53
KPYKCTLCGENFSHRSNLIRHQRF [I24F]	1.93
KPYKCTLCGENFSHRSNLIRKQRI [H21K]	2.04
KPYKCTLCGENFSHRSNLIRGQRI [H21G]	1.83
KPYKCTLCGENFSHRSNLIRYQRI [H21Y]	2.46
KPYKCTLCGENFSHRSNLIRFQRI [H21F]	2.34
KPYKCTLCGENFSHRSNLIRPQRI [H21P]	1.69
KPYKCTLCGENFSHRSNLIRWQRI [H21W]	3.53
KPYKCTLCGENFSHRSNLIRMQRI [H21M]	2.72
KPYKCTLCGENFSHRSNLIRAQRI [H21A]	2.13
KPYKCTLCGENFSHRSNLIRDQRI [H21D]	2.29
KPYKCTLCGENFSHRSNLIRQQRI [H21Q]	1.14
KPYKCTLCGENFSHRSNLIRCQRI [H21C]	2.6
KPYKCTLCGENFSHRSNLIRLQRI [H21L]	1.89
KPYKCTLCGENFSHRSNLIRTQRI [H21T]	2.22
KPYKCTLCGENFSHRSNLIRNQRI [H21N]	3.21
KPYKCTLCGENFSHRSNLIRSQRI [H21S]	1.89
KPYKCTLCGENFSHRSNLIRRQRI [H21R]	1.78
KPYKCTLCGENFSHRSNLIRIQRI [H21I]	1.58
KPYKCTLCGENFSHRSNLIREQRI [H21E]	2.58
KPYKCTLCGENFSHRSNLIGHQRI [R20G]	2.37
KPYKCTLCGENFSHRSNLIIHQRI [R20I]	1.81
KPYKCTLCGENFSHRSNLINHQRI [R20N]	2.38

Variant	protein stability index
KPYKCTLCGENFSHRSNLIKHQRI [R20K]	2.67
KPYKCTLCGENFSHRSNLITHQRI [R20T]	2.33
KPYKCTLCGENFSHRSNLIPHQRI [R20P]	1.7
KPYKCTLCGENFSHRSNLIWHQRI [R20W]	1.76
KPYKCTLCGENFSHRSNLIVHQRI [R20V]	1.99
KPYKCTLCGENFSHRSNLIFHQRI [R20F]	2.58
KPYKCTLCGENFSHRSNLIYHQRI [R20Y]	1.68
KPYKCTLCGENFSHRSNLICHQRI [R20C]	2.45
KPYKCTLCGENFSHRSNLIHHQRI [R20H]	1.76
KPYKCTLCGENFSHRSNLIDHQRI [R20D]	2.84
KPYKCTLCGENFSHRSNLIEHQRI [R20E]	3.12
KPYKCTLCGENFSHRSNLILHQRI [R20L]	2.15
KPYKCTLCGENFSHRSNLISHQRI [R20S]	1.8
KPYKCTLCGENFSHRSNLIMHQRI [R20M]	2.22
KPYKCTLCGENFSHRSNLIAHQRI [R20A]	2.43
KPYKCTLCGENFSHRSNLIQHQRI [R20Q]	2.6
KPYKCTLCGENFSHRSNLIRHWRI [Q22W]	2.65
KPYKCTLCGENFSHRSNLIRHRRI [Q22R]	3.17
KPYKCTLCGENFSHRSNLIRHNRI [Q22N]	2.61
KPYKCTLCGENFSHRSNLIRHCRI [Q22C]	2.44
KPYKCTLCGENFSHRSNLIRHKRI [Q22K]	2.14
KPYKCTLCGENFSHRSNLIRHYRI [Q22Y]	2.91
KPYKCTLCGENFSHRSNLIRHERI [Q22E]	1.66
KPYKCTLCGENFSHRSNLIRHFRI [Q22F]	2.35
KPYKCTLCGENFSHRSNLIRHIRI [Q22I]	2.72

Variant	protein stability index
KPYKCTLCGENFSHRSNLIRHARI [Q22A]	2.49
KPYKCTLCGENFSHRSNLIRHDRI [Q22D]	2.01
KPYKCTLCGENFSHRSNLIRHLRI [Q22L]	2.35
KPYKCTLCGENFSHRSNLIRHSRI [Q22S]	2.54
KPYKCTLCGENFSHRSNLIRHGRI [Q22G]	1.86
KPYKCTLCGENFSHRSNLIRHMRI [Q22M]	3.43
KPYKCTLCGENFSHRSNLIRHPRI [Q22P]	1.39
KPYKCTLCGENFSHRSNLIRHVRI [Q22V]	2.29
KPYKCTLCGENFSHRSNLIRHTRI [Q22T]	2.54
KPYKCTLCGENFSHRSNLIRHHRI [Q22H]	3.09
KPYKCTLCGENFSHRSNMIRHQRI [L18M]	1.93
KPYKCTLCGENFSHRSNAIRHQRI [L18A]	2.35
KPYKCTLCGENFSHRSNYIRHQRI [L18Y]	2.38
KPYKCTLCGENFSHRSNVIRHQRI [L18V]	2.59
KPYKCTLCGENFSHRSNDIRHQRI [L18D]	1.74
KPYKCTLCGENFSHRSNTIRHQRI [L18T]	1.72
KPYKCTLCGENFSHRSNRIRHQRI [L18R]	2.81
KPYKCTLCGENFSHRSNGIRHQRI [L18G]	1.98
KPYKCTLCGENFSHRSNPIRHQRI [L18P]	1.88
KPYKCTLCGENFSHRSNWIRHQRI [L18W]	2.19
KPYKCTLCGENFSHRSNHIRHQRI [L18H]	2.93
KPYKCTLCGENFSHRSNSIRHQRI [L18S]	1.77
KPYKCTLCGENFSHRSNQIRHQRI [L18Q]	2.42
KPYKCTLCGENFSHRSNFIRHQRI [L18F]	2.56
KPYKCTLCGENFSHRSNKIRHQRI [L18K]	2.19

Variant	protein stability index
KPYKCTLCGENFSHRSNEIRHQRI [L18E]	1.81
KPYKCTLCGENFSHRSNIIRHQRI [L18I]	1.95
KPYKCTLCGENFSHRSNCIRHQRI [L18C]	3.22
KPYKCTLCGENFSHRSNNIRHQRI [L18N]	2.21
KPYKCTLCGENFSHRSNLIRHQKI [R23K]	3.08
KPYKCTLCGENFSHRSNLIRHQVI [R23V]	2.01
KPYKCTLCGENFSHRSNLIRHQSI [R23S]	2.28
KPYKCTLCGENFSHRSNLIRHQMI [R23M]	2.88
KPYKCTLCGENFSHRSNLIRHQEI [R23E]	2.67
KPYKCTLCGENFSHRSNLIRHQNI [R23N]	2.63
KPYKCTLCGENFSHRSNLIRHQLI [R23L]	2.82
KPYKCTLCGENFSHRSNLIRHQPI [R23P]	1.33
KPYKCTLCGENFSHRSNLIRHQDI [R23D]	2.73
KPYKCTLCGENFSHRSNLIRHQII [R23I]	2.48
KPYKCTLCGENFSHRSNLIRHQCI [R23C]	4.48
KPYKCTLCGENFSHRSNLIRHQYI [R23Y]	2.57
KPYKCTLCGENFSHRSNLIRHQTI [R23T]	1.88
KPYKCTLCGENFSHRSNLIRHQWI [R23W]	1.65
KPYKCTLCGENFSHRSNLIRHQHI [R23H]	3.28
KPYKCTLCGENFSHRSNLIRHQFI [R23F]	1.66
KPYKCTLCGENFSHRSNLIRHQQI [R23Q]	2.34
KPYKCTLCGENFSHRSNLIRHQGI [R23G]	2.49
KPYKCTLCGENFSHRSNLIRHQAI [R23A]	2.57
